Among the data in patent US20040096912A1 are Kd values, retold here.

The assay has as its target µ opioid receptors in brain membranes of heterozygous Cre/S196A mice. The experiment in a line: [^3H]DAMGO saturation binding, Scatchard analysis, brain membranes of heterozygous Cre/S196A mice.

One may read the Kd as the equilibrium constant for the complex coming apart. Read a high Kd as a looser complex.

Regarding “[^3H]DAMGO ([D-Ala^1.N-McPhe^4.Gly^5-ol]enkephalin) (peptide)”, the Kd amounted to 2.45 nM.
